Laboratory results from patent US20230049732A1 (UNIVERSITY OF LOUISVILLE RESEARCH FOUNDATION, published 2023).

T1: HPV16 VLPs (human papillomavirus type 16, UniProt P03101 1-505)
T1 construct: Specificity control; also called human papillomavirus VLPs
T1 sequence: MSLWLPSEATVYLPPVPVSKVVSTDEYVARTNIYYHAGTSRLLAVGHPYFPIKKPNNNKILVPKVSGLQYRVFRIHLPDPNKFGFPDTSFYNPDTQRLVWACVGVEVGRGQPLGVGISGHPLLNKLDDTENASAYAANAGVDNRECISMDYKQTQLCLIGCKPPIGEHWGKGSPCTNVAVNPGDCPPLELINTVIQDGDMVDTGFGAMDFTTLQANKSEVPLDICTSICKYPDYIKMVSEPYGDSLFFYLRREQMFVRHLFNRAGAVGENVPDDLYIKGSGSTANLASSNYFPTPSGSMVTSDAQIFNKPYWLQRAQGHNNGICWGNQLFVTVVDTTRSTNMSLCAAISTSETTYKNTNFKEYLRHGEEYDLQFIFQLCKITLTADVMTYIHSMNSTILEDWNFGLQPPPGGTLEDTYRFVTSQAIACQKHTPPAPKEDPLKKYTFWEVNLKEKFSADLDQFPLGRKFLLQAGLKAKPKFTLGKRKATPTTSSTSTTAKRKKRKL


Key:
HPV16 VLPs [1] = molecular target: T1, HPV16 VLPs; assay: ELISA, VLPs coated
HPV16 VLPs [2] = molecular target: T1, HPV16 VLPs; assay: ELISA, intact VLPs coated, hybridoma supernatant

Binder	binding result (HPV16 VLPs [1])	ELISA absorbance (405 nm) (HPV16 VLPs [2])
MAb #61 (antibody, V domains shown, Murine hybridoma antibody, supernatant; also called antibody 61) VH: QVQLQQSGAELARPGASVKMSCKASGYTFTSYTMHWVKQRPGQGLEWIGYINPSSGYTNYNQKFKDKATLTADKSSSTAYMQLSSLTSEDSAVYYCARPDGYYAWFAYWGQGTLVTVSA VL: DIQMTQSSSSFSVSLGDRVTITCKASEDIYNRLAWYQQKPGNAPRLLISGATSLETGVPSRFSGSGSGKDYTLSITSLQTEDVATYYCQQYWSTPTFGGGTKLEIK	no binding	0.061
MAb #19B (antibody, V domains shown, Murine hybridoma antibody, supernatant; also called antibody 19) VH: QVQLQQSGAELARPGASVKMSCKASGYTFTSYTMYWVKQRPGQGLEWIGYVNPSSGYTNYNQKFKDKATLTADKSSSTAYMQLSSLTSEDSAVYYCARHGNYRYDGYYGMDCWGQGTSVTVSS VL: DIQMTQSSSSFSVSLGDRVTITCKASEDIYNRLAWYQQKPGNAPRLLISGATSLETGVPSRFSGSGSGKDYTLSITSLQTEDVATYYCQQYWSTPYTFGGGTKLEIK	no binding	0.015
